Molecular target: GST-MYC2-HA (UniProt Q39204)
Sequence (Q39204 whole entry): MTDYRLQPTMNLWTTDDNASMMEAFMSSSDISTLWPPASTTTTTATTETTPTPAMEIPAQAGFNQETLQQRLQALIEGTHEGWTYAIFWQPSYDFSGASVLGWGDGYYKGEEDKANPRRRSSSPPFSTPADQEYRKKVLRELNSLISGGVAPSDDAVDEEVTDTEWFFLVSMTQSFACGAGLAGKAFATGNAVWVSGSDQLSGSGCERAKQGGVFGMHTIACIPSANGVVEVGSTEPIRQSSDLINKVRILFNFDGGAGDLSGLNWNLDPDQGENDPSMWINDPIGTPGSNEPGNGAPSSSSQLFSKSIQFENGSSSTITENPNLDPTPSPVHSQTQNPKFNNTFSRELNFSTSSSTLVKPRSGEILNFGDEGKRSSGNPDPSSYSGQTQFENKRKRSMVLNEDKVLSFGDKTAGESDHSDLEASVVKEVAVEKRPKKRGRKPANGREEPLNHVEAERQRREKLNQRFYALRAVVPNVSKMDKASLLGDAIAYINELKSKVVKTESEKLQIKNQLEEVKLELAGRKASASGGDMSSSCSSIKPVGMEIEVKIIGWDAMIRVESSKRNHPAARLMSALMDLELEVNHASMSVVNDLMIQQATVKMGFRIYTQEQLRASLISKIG

MBP-PUB11 (C247A)-myc
in vitro ubiquitination of MYC2 (E1, E2, Ub; Western blot): MBP-PUB11 (C247A)-myc mutant protein has no E3 activity for GST-MYC-HA

— US20170306346
